According to the RNAGym collection of RNA variant scans (doi:10.7554/elife.80360):

B1: CPEB3 Ribozyme (parent)
chain: GGGGGCCACAGCAGAAGCGUUCACGUCGCGGCCCCUGUCAGAUUCUGGUGAAUCUGCGAAUUCUGCUGU

Variants of: B1
Assay: self-cleavage, relative activity (ratio to wild type); higher = more cleavage; co-transcriptional
For G25A C57G, the self-cleavage was 0.129. With C24A C27U the self-cleavage was 0.168. Work on G25C C45A yielded a self-cleavage of 0.204. Work on U26A G28U yielded a self-cleavage of 0.211. In the case of G25A G41A, the self-cleavage is reported as 0.174. Work on G25A C54U yielded a self-cleavage of 0.248. For G25A U44C, the self-cleavage was 0.0881. Work on C24U A59U yielded a self-cleavage of 0.414. For G25C C63G, the self-cleavage was 0.176. With G25C C63A the self-cleavage was 0.235. For C24U A60G, the self-cleavage was 0.464. C24U A60U showed a self-cleavage of 0.299. C24A C32G gave a self-cleavage of 0.234. In the case of G25U A59G, the self-cleavage is reported as 0.174. For G25C G50C, the self-cleavage was 0.179. C24G G41A showed a self-cleavage of 0.247. In the case of C24G G41U, the self-cleavage is reported as 0.207. In the case of G25C A51U, the self-cleavage is reported as 0.152. In the case of G25U U26G, the self-cleavage is reported as 0.0885. Variant G25C U49C has a self-cleavage of 0.185. With U26A C34A the self-cleavage was 0.436. C24U A40C gave a self-cleavage of 0.228. For G25A C34G, the self-cleavage was 0.19. Variant C24G U67C has a self-cleavage of 0.522. C24G U67G showed a self-cleavage of 0.508. C24U U53G gave a self-cleavage of 0.482. For C24U U53A, the self-cleavage was 0.64. For C24A U55A, the self-cleavage was 0.617. C24A U55C gave a self-cleavage of 0.434. C24G A51U gave a self-cleavage of 0.353. C24A A52U gave a self-cleavage of 0.632. C24A A52C gave a self-cleavage of 0.634. G25A G47C showed a self-cleavage of 0.217. Variant G25A G47U has a self-cleavage of 0.198. Variant U26A U46C has a self-cleavage of 0.809. For C24A A59C, the self-cleavage was 0.32. For G25U C66A, the self-cleavage was 0.133. G25U C66G gave a self-cleavage of 0.187. For U26A G48U, the self-cleavage was 0.928. Work on G25U A42G yielded a self-cleavage of 0.129. G25U C32A showed a self-cleavage of 0.162. Work on G25U C32U yielded a self-cleavage of 0.228. G25U C29U gave a self-cleavage of 0.206. Work on C24A C54G yielded a self-cleavage of 0.549. Variant C24A C54A has a self-cleavage of 0.516. Work on C24A U26C yielded a self-cleavage of 0.507. C24G G37U gave a self-cleavage of 0.278. G25C U53A gave a self-cleavage of 0.125. With U26A C39U the self-cleavage was 0.722. With U26A C39G the self-cleavage was 0.798. U26A C39A gave a self-cleavage of 0.477. G25C U69A showed a self-cleavage of 0.221. G25C U69G showed a self-cleavage of 0.309. For G25A C63G, the self-cleavage was 0.185. With G25A C63A the self-cleavage was 0.104. With G25A U61A the self-cleavage was 0.173. U26A G30C showed a self-cleavage of 0.266. In the case of U26A G30U, the self-cleavage is reported as 0.254. A23U G47C showed a self-cleavage of 0.999. In the case of U26A C33A, the self-cleavage is reported as 0.682. In the case of U26A C33U, the self-cleavage is reported as 0.85. Variant U26A C57A has a self-cleavage of 0.355. In the case of C24U C45U, the self-cleavage is reported as 0.829. Variant C24U A51G has a self-cleavage of 0.774. Work on C24U A51U yielded a self-cleavage of 0.785. Work on C24G U55C yielded a self-cleavage of 0.292. G25C U67C showed a self-cleavage of 0.115. Work on A23U G65U yielded a self-cleavage of 0.811. Work on C24A U36C yielded a self-cleavage of 0.27. Work on A23U U64C yielded a self-cleavage of 0.905. In the case of C24U G30C, the self-cleavage is reported as 0.152. Variant G25C U46C has a self-cleavage of 0.218. With C24A A51U the self-cleavage was 0.782. Work on C24U U46G yielded a self-cleavage of 0.879. In the case of C24U G65C, the self-cleavage is reported as 0.353. In the case of G25C C27A, the self-cleavage is reported as 0.146. Variant C24U C63A has a self-cleavage of 0.391. For C24U C63U, the self-cleavage was 0.719. G25U U38C gave a self-cleavage of 0.13. G25U U38A gave a self-cleavage of 0.168. In the case of U26A G41A, the self-cleavage is reported as 0.561. Variant U26A G41U has a self-cleavage of 0.67. C24G A52U gave a self-cleavage of 0.409. Variant C24G A52C has a self-cleavage of 0.391. With U26A C63G the self-cleavage was 0.507. In the case of U26A C63U, the self-cleavage is reported as 0.779. With A23U G48C the self-cleavage was 1.06. For G25C G48C, the self-cleavage was 0.147. With G25U C45G the self-cleavage was 0.133. With C24U G50U the self-cleavage was 0.852. Work on G25U U55C yielded a self-cleavage of 0.229. G25A C66G gave a self-cleavage of 0.223. In the case of A23U G58A, the self-cleavage is reported as 1.02. For A23U G58C, the self-cleavage was 1.02. A23U G58U gave a self-cleavage of 1.01. Variant U26A U44C has a self-cleavage of 0.768. G25C G65A gave a self-cleavage of 0.216. Variant C24U C27A has a self-cleavage of 0.229. Variant U26A U43A has a self-cleavage of 0.846. With G25A C45G the self-cleavage was 0.142. Work on G25A C45U yielded a self-cleavage of 0.132. With G25A U67A the self-cleavage was 0.21. In the case of C24U U62G, the self-cleavage is reported as 0.386. With C24U U49C the self-cleavage was 0.84. C24U U49A gave a self-cleavage of 0.865. For C24A U49G, the self-cleavage was 0.686. Work on C24A U49C yielded a self-cleavage of 0.74. For G25U C39A, the self-cleavage was 0.137. With G25U U62G the self-cleavage was 0.116. G25U U62A showed a self-cleavage of 0.158. G25A G48C showed a self-cleavage of 0.218. Variant G25C C34U has a self-cleavage of 0.219. In the case of A23U G37C, the self-cleavage is reported as 0.149. Variant A23U G37A has a self-cleavage of 0.384. Variant A23U G37U has a self-cleavage of 0.347. G25C G28C showed a self-cleavage of 0.153. U26A G68U gave a self-cleavage of 0.901. U26A G68C gave a self-cleavage of 0.964. Variant C24A U43C has a self-cleavage of 0.631. C24U G31C showed a self-cleavage of 0.0935. For C24A A42C, the self-cleavage was 0.629. Work on C24A A42U yielded a self-cleavage of 0.66. In the case of G25C U64C, the self-cleavage is reported as 0.181. G25C U64G gave a self-cleavage of 0.155. Variant C24A G30C has a self-cleavage of 0.159. Variant A23U U62G has a self-cleavage of 0.894. In the case of A23U U62C, the self-cleavage is reported as 0.885. For C24G U69G, the self-cleavage was 0.63. In the case of C24G U69A, the self-cleavage is reported as 0.509. Variant U26A G65C has a self-cleavage of 0.466. Variant U26A G65U has a self-cleavage of 0.466. Variant U26A C54A has a self-cleavage of 0.655. Variant U26A C54G has a self-cleavage of 0.758. For C24G C29U, the self-cleavage was 0.0935. C24G C29G showed a self-cleavage of 0.194. G25C G37U gave a self-cleavage of 0.156. C24U G25U showed a self-cleavage of 0.146. With U26A A40U the self-cleavage was 0.531. C24U C57A gave a self-cleavage of 0.309. In the case of C24U U55C, the self-cleavage is reported as 0.391. C24U U55G showed a self-cleavage of 0.367. In the case of C24U U55A, the self-cleavage is reported as 0.651. Work on C24U A42C yielded a self-cleavage of 0.673. In the case of A23U U38G, the self-cleavage is reported as 0.206. Work on A23U U38C yielded a self-cleavage of 0.96. Variant A23U U38A has a self-cleavage of 0.95. With G25A U55A the self-cleavage was 0.222. C24U G58A gave a self-cleavage of 0.516. For C24G C32A, the self-cleavage was 0.224. C24G G25U showed a self-cleavage of 0.104. With G25C G31A the self-cleavage was 0.217. Variant G25U A60U has a self-cleavage of 0.13. Work on G25U A60G yielded a self-cleavage of 0.229. G25U A60C showed a self-cleavage of 0.132. Work on G25A C32A yielded a self-cleavage of 0.22. In the case of G25U G47U, the self-cleavage is reported as 0.148. Variant G25U G47A has a self-cleavage of 0.188. Variant U26A G58U has a self-cleavage of 0.852. U26A G58C showed a self-cleavage of 0.792. Work on U26A G58A yielded a self-cleavage of 0.627. Variant G25A G50C has a self-cleavage of 0.28. Variant G25A G50U has a self-cleavage of 0.267. In the case of G25A G50A, the self-cleavage is reported as 0.195. In the case of G25C U61A, the self-cleavage is reported as 0.193. With G25C U61C the self-cleavage was 0.0705. In the case of C24G G48C, the self-cleavage is reported as 0.449. With C24G G48A the self-cleavage was 0.554.
